Experiment [1] has as its system renalase-1 and renalase-2. In words: renalase isoform specificity of the antibodies (ELISA / hybridoma screening). Type of experiment: binding, human. Particulars: renalase-1 vs renalase-2. On the procedure:
Peptides were used as immunogens. The peptides generated ranged from 9 to 21 amino acids and corresponded to regions of the renalase-1 and renalase-2 proteins. […] Each peptide was conjugated to the adjuvant KLH via the cysteine and used to immunize 6 rabbits. Antiserum collected from each animal was screened for anti-renalase antibody titer by ELISA assay using both the relevant peptide (BSA-conjugate) or full length renalase-1 or 2. The antisera were also tested for their ability to detect endogenous renalase in tissue lysates by western blot. Using these screening criteria the animals producing antibodies with the preferred characteristics were selected. In some examples and for some peptides, several animals produced antibodies with the required specificity. […] Polyclonal antibodies raised against all of the peptides were generated by purification of total IgG from terminal bleeds by protein G chromatography followed by further purification on peptide affinity chromatography. Further and using standard procedures, lymphocytes from the spleens of selected animals were fused to myeloma cells for hybridoma generation. The hybridoma supernatants were screened for binding to both the peptides against which they were raised and secondarily screened against whole renalase protein. Selected hybridomas were sub-cloned and expanded for antibody purification. The monoclonal antibodies were purified from conditioned hybridoma culture supernatant by protein A affinity chromatography.
Background: An ELISA detects its analyte on a solid surface through an enzyme-linked reagent.

The next experiment concerns melanoma cell lines. In words: melanoma cells in culture, viability / growth. The experiment is classed as cell-based, human. On the procedure:
Total cell number and percentage of live cells were assessed by trypan blue exclusion, and cells were counted using a BioRad TC10 automated cell counter. For additional studies, cell viability was determined using WST-1 reagent (Roche Diagnostics, Indianapolis, Ind., USA) according to the manufacturers' instruction. Absorbances were read using a microplate reader (Power Waves XS, BioTek Instruments, Winooski, Vt., USA).

The subject of experiment [2] is PDACC (pancreatic ductal adenocarcinoma cells). In words: PDACC viability with anti-RNLS antibodies, WST-1. The experiment is classed as cell-based, human. Particulars: 72 hrs. On the procedure: FIG. 25, comprising FIGS. 25A through 25E, is a series of charts and images showing that inhibition of RNLS signaling is cytotoxic to cancer cells in vitro and in vivo. FIG. 25A is a chart showing relative cell viability following transient transfection of Panc1 cells using a RNLS-specific siRNA, or a non-specific control siRNA, and cell viability assayed 96 h later using the WST-1 reagent; n=6, ** indicates p<0.001. FIG. 25B is a chart showing relative cell viability when cells were treated with indicated antibodies for 72 hrs and cell viability determined using WST-1; m28-RNLS and m37-RNLS: monoclonal antibodies raised against RNLS peptide RP220, ab31291: Abcam polyclonal antibody raised against a partial sequence of RP-220; n=6, * indicates p<0.005. […] FIG. 25D is a chart showing tumor volume increase after athymic nude mice received subcutaneous injection of Panc1 cells transduced with RNLS shRNA (sh-RNLS) or control (sh-Control); tumor volume measured every […] for up to 30 days, n=6 each; * indicates p<0.05. FIG. 25E is chart showing tumor volume increase after nude mice were xenografted with BxPC3; tumor volume measured prior to treatment every 3-4 days with 2 mg/kg of either rabbit IgG as a negative control or with m28-RNLS, n=10, * indicates p<0.05.
Cell viability was assessed by trypan blue exclusion, and cells were counted using a BioRad TC10 automated counter.
Background: Tetrazolium assays rely on reduction of a dye to a coloured formazan, in cell work by metabolically active cells.

Residue numbers refer to the chain shown, from its start. Like-named read-outs stand apart in the source and are kept apart here.

B1: 1F-26-1: anti-renalase monoclonal specific for renalase-1; heavy chain SEQ ID NO:25, light chain SEQ ID NO:26 (antibody)
heavy: METGLRWLLLVAVLKGVQCQSVKESEGGLFKPTDTLTLTCTVSGFSLSSYGVTWVRQAPGNGLEWIGLIGDRGTTFYASWAKSRSTITRNTNLNTVTLKMTRLTAADTATYFCARGSGYGARIWGPGTLVTVSSWQPKAPSVFPLAPCCGDTPSSTVTLGCLVKGYLPEPVTVTWNSGTLTNGVRTFPSVRQSSGLYSLSSVVSVTSSSQPVTCNVAHPATNTKVDKTVAPSTCSKPTCPPPELLGGPSVFIFPPKPKDTLMISRTPEVTCVVVDVSQDDPEVQFTWYINNEQVRTARPPLREQQFNSTIRVVSTLPIAHQDWLRGKEFKCKVHNKALPAPIEKTISKARGQPLEPKVYTMGPPREELSSRSVSLTCMINGFYPSDISVEWEKNGKAEDNYKTTPAVLDSDGSYFLYSKLSVPTSEWQRGDVFTCSVMHEALHNHYTQKSISRSPGK
light: MDTRAPTQLLGLLLLWLPGATFAQVLTQTPSPVSAAVGGTVTINCQSSQSVYKNNYLAWYQQKPGQPPKLLIYETSKLASGVPPRFSGSGSGTQFTLTISSVQCDDAATYYCQGGYSGVDFMAFGGGTEVVVKGDPVAPTVLIFPPSADLVATGTVTIVCVANKYFPDVTVTWEVDGTTQTTGIENSKTPQNSADCTYNLSSTLTLTSTQYNSHKEYTCKVTQGTTSVVQSFNRGDC
modifications: 1F-26-1 full length heavy chain amino acid; 1F-26-1 full length light chain amino acid
With B1, in experiment [1], the renalase-type specificity entry is “specific for renalase-1”.

B2: 1F-42-7: anti-renalase monoclonal specific for renalase-1; heavy chain SEQ ID NO:33, light chain SEQ ID NO:34 (antibody)
heavy: B1 heavy with S48T, S49T, F76Y, A81V, K82N, S83G, S133A
light: B1 light with V33M, V37L, S50T, K53N, A58S, A79S
modifications: 1F-42-7 full length heavy chain amino acid; 1F-42-7 full length light chain amino acid
As for B2, in experiment [1], the renalase-type specificity entry is “specific for renalase-1”.

B3: 3A-5-2: anti-renalase monoclonal specific for renalase-2; heavy chain SEQ ID NO:41, light chain SEQ ID NO:42 (antibody)
heavy: METGLRWLLLVAVLKGVQCQSLEESGGRLVTPGTPLTLTCTVSGFSLNNYHIYWVRQAPGKGLEYIGIIFNGGTYYARWTKGRFTISKTSTTVDLKMTSLTTEDTATYFCARGDGIWGPGTLVTVSLGQPKAPSVFPLAPCCGDTPSSTVTLGCLVKGYLPEPVTVTWNSGTLTNGVRTFPSVRQSSGLYSLSSVVSVTSSSQPVTCNVAHPATNTKVDKTVAPSTCSKPTCPPPELLGGPSVFIFPPKPKDTLMISRTPEVTCVVVDVSQDDPEVQFTWYINNEQVRTARPPLREQQFNSTIRVVSTLPIAHQDWLRGKEFKCKVHNKALPAPIEKTISKARGQPLEPKVYTMGPPREELSSRSVSLTCMINGFYPSDISVEWEKNGKAEDNYKTTPAVLDSDGSYFLYSKLSVPTSEWQRGDVFTCSVMHEALHNHYTQKSISRSPGK
light: MDTRAPTQLLGLLLLWLPGATFAQVLTQTPASVSAAVGGTVTINCQASQSVFNNNYLAWYQQKPGQPPKRLIYSASTLASGVSSRFKGSGSGTEFTLTMSGVECDDAATYYCAGSFDCNSGDCVAFGGGTEVVVKGDPVAPTVLIFPPAADQVATGTVTIVCVANKYFPDVTVTWEVDGTTQTTGIENSKTPQNSADCTYNLSSTLTLTSTQYNSHKEYTCKVTQGTTSVVQSFNRGDC
modifications: 3A-5-2 full length heavy chain amino acid; 3A-5-2 full length light chain amino acid
Regarding B3, the renalase-type specificity entry in experiment [1] is given as “specific for renalase-2”.

B4: m37-RNLS: rabbit anti-renalase monoclonal raised against RP-220; heavy chain SEQ ID NO:17, light chain SEQ ID NO:18 (antibody)
heavy: METGLRWLLLVAVLKGVQCQSVEESGGRLVTPGGSLTLTCTVSGFSLSDYAIIWVRQAPGKGLEYIAIIGSSGDTFYATWAKGRFTISKTSTTVDLKMTSLTAADTATYFCAPRYAGTTDYHDAFDPWGPGTLVTVSSGQPKAPSVFPLAPCCGDTPSSTVTLGCLVKGYLPEPVTVTWNSGTLTNGVRTFPSVRQSSGLYSLSSVVSVTSSSQPVTCNVAHPATNTKVDKTVAPSTCSKPTCPPPELLGGPSVFIFPPKPKDTLMISRTPEVTCVVVDVSQDDPEVQFTWYINNEQVRTARPPLREQQFNSTIRVVSTLPIAHQDWLRGKEFKCKVHNKALPAPIEKTISKARGQPLEPKVYTMGPPREELSSRSVSLTCMINGFYPSDISVEWEKNGKAEDNYKTTPAVLDSDGSYFLYSKLSVPTSEWQRGDVFTCSVMHEALHNHYTQKSISRSPGK
light: MDTRAPTQLLGLLLLWLPGARCAEVVMTQTPASMEAPMGGTVTIKCQASQNIYNYLSWYQQKPGQPPKLLVYKASTLTSGVPSRFKGSGSGTQFTLTISDLECADAATYYCQINYSIYNHYNIIFGGGTEVVVKGDPVAPTVLIFPPSADLVATGTVTIVCVANKYFPDVTVTWEVDGTTQTTGIENSKTPQNSADCTYNLSSTLTLTSTQYNSHKEYTCKVTQGTTSVVQSFNRGDC
modifications: 1D-37-10 full length heavy chain amino acid; 1D-37-10 full length light chain amino acid
For B4, the renalase-type specificity entry in experiment [1] is “recognize renalase-1 and renalase-2”. In addition, the “melanoma cell viability / growth in culture” value was “decreased the viability of all (total of 5) melanoma cell lines tested” in the experiment on melanoma cell lines, “inhibit melanoma cells in culture” in the experiment with melanoma cell lines (listed as 1D-37-10) and “inhibit melanoma cell growth” in the experiment with melanoma cell lines (listed as D-37-10). Further, the “PDACC growth / viability” value in experiment [2] is “inhibitory effects”.
